The chains are these.
B1: Neuroligin-2 (Rattus norvegicus (Rat)), Q62888-2 (parent)
chain: MWLLALCLVGLAGAQRGGGGPGGGAPGGPGLGLGSLGEERFPVVNTAYGRVRGVRRELNNEILGPVVQFLGVPYATPPLGARRFQPPEAPASWPGVRNATTLPPACPQNLHGALPAIMLPVWFTDNLEAAATYVQNQSEDCLYLNLYVPTEDDIRDSGKKPVMLFLHGGSYMEGTGNMFDGSVLAAYGNVIVATLNYRLGVLGFLSTGDQAAKGNYGLLDQIQALRWLSENIAHFGGDPERITIFGSGAGASCVNLLILSHHSEGLFQKAIAQSGTAISSWSVNYQPLKYTRLLAAKVGCDREDSTEAVECLRRKSSRELVDQDVQPARYHIAFGPVVDGDVVPDDPEILMQQGEFLNYDMLIGVNQGEGLKFVEDSAESEDGVSASAFDFTVSNFVDNLYGYPEGKDVLRETIKFMYTDWADRDNGEMRRKTLLALFTDHQWVAPAVATAKLHADYQSPVYFYTFYHHCQAEGRPEWADAAHGDELPYVFGVPMVGATDLFPCNFSKNDVMLSAVVMTYWTNFAKTGDPNQPVPQDTKFIHTKPNRFEEVVWSKFNSKEKQYLHIGLKPRVRDNYRANKVAFWLELVPHLHNLHTELFTTTTRLPPYATRWPPRTPGPGTSGTRRPPPPATLPPESDIDLGPRAYDRFPGDSRDYSTELSVTVAVGASLLFLNILAFAALYYKRDRRQELRCRRLSPPGGSGSGVPGGGPLLPTAGRELPPEEELVSLQLKRGGGVGADPAEALRPACPPDYTLALRRAPDDVPLLAPGALTLLPSGLGPPPPPPPPSLHPFGPFPPPPPTATSHNNTLPHPHSTTRV
B2: Neuroligin-1 (Rattus norvegicus (Rat)), Q62765-2 (parent)
chain: MALPRCMWPNYVWRAMMACVVHRGSGAPLTLCLLGCLLQTFHVLSQKLDDVDPLVTTNFGKIRGIKKELNNEILGPVIQFLGVPYAAPPTGEHRFQPPEPPSPWSDIRNATQFAPVCPQNIIDGRLPEVMLPVWFTNNLDVVSSYVQDQSEDCLYLNIYVPTEDDIRDSGGPKPVMVYIHGGSYMEGTGNLYDGSVLASYGNVIVITVNYRLGVLGFLSTGDQAAKGNYGLLDLIQALRWTSENIGFFGGDPLRITVFGSGAGGSCVNLLTLSHYSEGLFQRAIAQSGTALSSWAVSFQPAKYARILATKVGCNVSDTVELVECLQKKPYKELVDQDVQPARYHIAFGPVIDGDVIPDDPQILMEQGEFLNYDIMLGVNQGEGLKFVENIVDSDDGVSASDFDFAVSNFVDNLYGYPEGKDVLRETIKFMYTDWADRHNPETRRKTLLALFTDHQWVAPAVATADLHSNFGSPTYFYAFYHHCQTDQVPAWADAAHGDEVPYVLGIPMIGPTELFPCNFSKNDVMLSAVVMTYWTNFAKTGDPNQPVPQDTKFIHTKPNRFEEVAWTRYSQKDQLYLHIGLKPRVKEHYRANKVNLWLELVPHLHNLNDISQYTSTTTKVPSTDITLRPTRKNSTPVTSAFPTAKQDDPKQQPSPFSVDQRDYSTELSVTIAVGASLLFLNILAFAALYYKKDKRRHDVHRRCSPQRTTTNDLTHAPEEEIMSLQMKHTDLDHECESIHPHEVVLRTACPPDYTLAMRRSPDDVPLMTPNTITMIPNTIPGIQPLHTFNTFTGGQNNTLPHPHPHPHSHSTTRV

One experiment covers variants of B1. The conditions noted are these: with Nrxn1, Q63373-3.
Target sequence in this assay (Q63373 other isoform, or with tags, fused parts or gaps): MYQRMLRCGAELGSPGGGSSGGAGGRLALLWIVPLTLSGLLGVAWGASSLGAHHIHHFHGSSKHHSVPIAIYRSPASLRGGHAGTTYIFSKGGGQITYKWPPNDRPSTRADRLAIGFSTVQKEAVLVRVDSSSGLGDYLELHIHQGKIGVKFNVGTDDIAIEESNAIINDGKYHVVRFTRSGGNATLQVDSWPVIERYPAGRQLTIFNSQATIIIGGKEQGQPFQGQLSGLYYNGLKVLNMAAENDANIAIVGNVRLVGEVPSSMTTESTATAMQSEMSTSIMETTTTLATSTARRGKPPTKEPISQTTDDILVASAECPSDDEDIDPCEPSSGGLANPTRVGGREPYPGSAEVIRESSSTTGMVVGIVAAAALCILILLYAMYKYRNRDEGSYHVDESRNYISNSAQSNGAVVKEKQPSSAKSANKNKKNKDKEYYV
Regarding Q458G, the “effect of a mutation on the interaction” value is recorded as “increasing interaction”.

Another experiment covers variants of B2. The conditions noted are these: with Nrxn1, Q63373-3.
Target sequence in this assay (Q63373 other isoform, or with tags, fused parts or gaps): as above
Consider G471A, for which the “effect of a mutation on the interaction” value is given as “disrupting interaction”.

Source of the values: IntAct's records for PubMed 20543817.
